Measured values as given in article PMC4404914, “Adenoviral L4 33K forms ring-like oligomers and stimulates ATPase activity of IVa2: implications in viral genome packaging” (Frontiers in Microbiology, 2015).

B2: 6His-tagged HAdV5 IVa2, purified from E. coli (natural protein)
chain: METRGRRPAALQHQQDQPQAHPGQRAARSAPLHRDPDYADEDPAPVERHDPGPSGRAPTTAVQRKPPQPAKRGDMLDRDAVEQVTELWDRLELLGQTLKSMPTADGLKPLKNFASLQELLSLGGERLLADLVRENMRVRDMLNEVAPLLRDDGSCSSLNYQLHPVIGVIYGPTGCGKSQLLRNLLSSQLISPTPETVFFIAPQVDMIPPSELKAWEMQICEGNYAPGPDGTIIPQSGTLRPRFVKMAYDDLILEHNYDVSDPRNIFAQAAARGPIAIIMDECMENLGGHKGVSKFFHAFPSKLHDKFPKCTGYTVLVVLHNMNPRRDMAGNIANLKIQSKMHLISPRMHPSQLNRFVNTYTKGLPLAISLLLKDIFRHHAQRSCYDWIIYNTTPQHEALQWCYLHPRDGLMPMYLNIQSHLYHVLEKIHRTLNDRDRWSRAYRARKTPK
notes: IVa2 of human adenovirus serotype 5; synthetic gene cassette, codon-optimized for bacteria, in pET28a (pET28-IVa2); the results speak of the full-length IVa2 band; A faster migrating band, perhaps a degradation product of IVa2, was also in the preparation; also called purified IVa2; source: E. coli BL21 (DE3) pLysS, purified (HiTrap NiNTA, HiPrep 16/10 SP-XL cation exchange)

Assays:
[1] = biological target: B2; assay: cell-based or functional assay
[2] = biological target: the molecule itself; assay: transmission electron microscopy (negative stain); purified protein on glow-discharged carbon-coated formvar grids, rinsed with 20 mM Tris pH 7.5, 2% uranyl acetate

B1: 6His-tagged HAdV5 L4 33K, purified from E. coli (natural protein)
chain: MAPKKKLQLPPPPTDEEEYWDSQAEEVLDEEEEDMMEDWESLDEEASEVEEVSDETPSPSVAFPSPAPQKSATGSSMATTSAPQAPPALPVRRPNRRWDTTGTRAAHTAPAAAAAAATAAATQKQRRPDSKTLTKPKKSTAAAAAGGGALRLAPNEPVSTRELRNRIFPTLYAIFQQSRGQEQELKIKNRSLRSLTRSCLYHKSEDQLRRTLEDAEALFSKYCALTLKD
ATPase activity of purified IVa2 (inorganic phosphate after 30 min at 37°C) with 33K and HAdV5 Tp-DNA; no significant increase with only IVa2 + 33K, 33K + Tp-DNA or IVa2 + Tp-DNA [1]: 3 fold

B2
binding result [2]: binds
